Measured values from the Immune Epitope Database (IEDB).
pIC50, pKd: −log10 of the molar value.

Columns and labels:
[1] = target: HLA-A*02:01; assay: IEDB peptide-MHC binding, purified MHC/direct/fluorescence; filed as Kd, often an IC50 or EC50 that approximates it; ≥ and ≤ were set here for values at or beyond the usual limits of such assays; conditions: source organism: Mycobacterium tuberculosis str. Haarlem
[2] = target: HLA-A*26:01; assay: as above; conditions: source organism: Mycobacterium tuberculosis str. Haarlem
[3] = target: HLA-B*51:01; assay: as above; conditions: source organism: Mycobacterium tuberculosis str. Haarlem
[4] = target: HLA-B*57:01; assay: as above; conditions: source organism: Mycobacterium tuberculosis str. Haarlem
[5] = target: HLA-A*02:12; assay: as above; conditions: source organism: Mycobacterium tuberculosis str. Haarlem
[6] = target: HLA-A*02:06; assay: as above; conditions: source organism: Mycobacterium tuberculosis str. Haarlem
[7] = target: HLA-B*46:01; assay: as above; conditions: source organism: Mycobacterium tuberculosis str. Haarlem
[8] = target: HLA-B*18:01; assay: as above; conditions: source organism: Mycobacterium tuberculosis str. Haarlem
[9] = target: HLA-A*24:03; assay: as above; conditions: source organism: Mycobacterium tuberculosis str. Haarlem
[10] = target: HLA-B*39:01; assay: as above; conditions: source organism: Mycobacterium tuberculosis str. Haarlem
[11] = target: HLA-A*03:01; assay: as above; conditions: source organism: Mycobacterium tuberculosis str. Haarlem
[12] = target: HLA-A*29:02; assay: as above; conditions: source organism: Mycobacterium tuberculosis str. Haarlem
[13] = target: HLA-B*27:03; assay: as above; conditions: source organism: Mycobacterium tuberculosis str. Haarlem
[14] = target: HLA-B*58:01; assay: IEDB peptide-MHC binding, purified MHC/competitive/fluorescence; filed as Kd, often an IC50 or EC50 that approximates it; ≥ and ≤ were set here for values at or beyond the usual limits of such assays
[15] = target: HLA-A*66:01; assay: as above; conditions: source organism: Mycobacterium tuberculosis variant bovis BCG str. Pasteur 1173P2
[16] = target: HLA-B*14:02; assay: as above; conditions: source organism: Mycobacterium tuberculosis variant bovis BCG str. Pasteur 1173P2
[17] = target: HLA-A*01:01; assay: as above
[18] = target: HLA-A*11:01; assay: as above
[19] = target: HLA-B*08:01; assay: as above
[20] = target: HLA-A*30:01; assay: as above
[21] = target: HLA-B*53:01; assay: as above; conditions: source organism: Mycobacterium tuberculosis variant bovis BCG str. Pasteur 1173P2
[22] = target: HLA-B*44:02; assay: as above; conditions: source organism: Mycobacterium tuberculosis variant bovis BCG str. Pasteur 1173P2
[23] = target: HLA-A*30:02; assay: as above; conditions: source organism: Mycobacterium tuberculosis variant bovis BCG str. Pasteur 1173P2
[24] = target: HLA-B*40:01; assay: as above
[25] = target: HLA-A*23:01; assay: as above; conditions: source organism: Mycobacterium tuberculosis variant bovis BCG str. Pasteur 1173P2
[26] = target: HLA-B*27:05; assay: as above
[27] = target: HLA-A*24:02; assay: IEDB peptide-MHC binding, purified MHC/competitive/fluorescence; ≥ and ≤ were set here for values at or beyond the usual limits of such assays; conditions: source organism: Homo sapiens
[28] = target: HLA-B*44:02; assay: as above; conditions: source organism: Homo sapiens
[29] = target: HLA-A*11:01; assay: IEDB peptide-MHC binding, purified MHC/competitive/radioactivity; ≥ and ≤ were set here for values at or beyond the usual limits of such assays; conditions: source organism: Rhinovirus C
[30] = target: HLA-C*05:01; assay: IEDB peptide-MHC binding, purified MHC/direct/fluorescence; filed as Kd, often an IC50 or EC50 that approximates it; ≥ and ≤ were set here for values at or beyond the usual limits of such assays; conditions: source organism: Salmonella enterica subsp. enterica serovar Typhi str. CT18
[31] = target: HLA-A*02:01; assay: IEDB peptide-MHC binding, purified MHC/competitive/fluorescence; filed as Kd, often an IC50 or EC50 that approximates it; ≥ and ≤ were set here for values at or beyond the usual limits of such assays; conditions: source organism: Salmonella enterica subsp. enterica serovar Typhi
[32] = target: HLA-A*31:01; assay: as above; conditions: source organism: Salmonella enterica subsp. enterica serovar Typhi
[33] = target: HLA-A*02:03; assay: as above; conditions: source organism: Salmonella enterica subsp. enterica serovar Typhi
[34] = target: HLA-B*15:01; assay: as above; conditions: source organism: Salmonella enterica subsp. enterica serovar Typhi
[35] = target: HLA-A*02:06; assay: as above; conditions: source organism: Salmonella enterica subsp. enterica serovar Typhi
[36] = target: HLA-B*46:01; assay: as above; conditions: source organism: Salmonella enterica subsp. enterica serovar Typhi
[37] = target: HLA-B*48:01; assay: as above; conditions: source organism: Salmonella enterica subsp. enterica serovar Typhi
[38] = target: HLA-B*15:09; assay: as above; conditions: source organism: Salmonella enterica subsp. enterica serovar Typhi
[39] = target: HLA-B*15:17; assay: as above; conditions: source organism: Salmonella enterica subsp. enterica serovar Typhi
[40] = target: HLA-A*03:01; assay: as above; conditions: source organism: Salmonella enterica subsp. enterica serovar Typhi
[41] = target: HLA-B*38:01; assay: as above; conditions: source organism: Salmonella enterica subsp. enterica serovar Typhi
[42] = target: HLA-B*07:02; assay: as above; conditions: source organism: Salmonella enterica subsp. enterica serovar Typhi
[43] = target: HLA-A*69:01; assay: as above; conditions: source organism: Salmonella enterica subsp. enterica serovar Typhi
[44] = source organism: Mycobacterium tuberculosis variant bovis BCG str. Pasteur 1173P2
[45] = source organism: Salmonella enterica subsp. enterica serovar Typhi

Sequence: RVACRDVEV
- pKd [1]: 6.60
- pKd [2]: ≤ 4.70
- pKd [3]: ≤ 4.70
- pKd [4]: ≤ 4.70
- pKd [5]: 7.49
- pKd [6]: 8.70
- pKd [7]: ≤ 4.70
- pKd [8]: ≤ 4.70
- pKd [9]: ≤ 4.70
- pKd [10]: ≤ 4.70
- pKd [11]: ≤ 4.70
- pKd [12]: ≤ 4.70
- pKd [13]: ≤ 4.70
- pKd [14, 44]: ≤ 5.30
- pKd [15]: ≤ 5.30
- pKd [16]: 5.52
- pKd [17, 44]: ≤ 5.30
- pKd [18, 44]: ≤ 5.30
- pKd [19, 44]: ≤ 5.30
- pKd [20, 44]: ≤ 5.30
- pKd [21]: ≤ 5.30
- pKd [22]: ≤ 5.30
- pKd [23]: ≤ 5.30
- pKd [24, 44]: ≤ 5.30
- pKd [25]: ≤ 5.30
- pKd [26, 44]: ≤ 5.30

Sequence: FYYNAFHW
- pIC50 [27]: 5.58
- pIC50 [28]: ≤ 4.70

Sequence: KYFNINYYK
- pIC50 [29]: 6.70

Sequence: LSEEANWAF
- pKd [30]: 8.30
- pKd [31]: ≤ 4.70
- pKd [14, 45]: 6.30
- pKd [32]: ≤ 4.70
- pKd [17, 45]: 7.37
- pKd [33]: ≤ 4.70
- pKd [18, 45]: ≤ 4.70
- pKd [34]: 6.02
- pKd [35]: 7.29
- pKd [36]: ≤ 4.70
- pKd [19, 45]: ≤ 4.70
- pKd [37]: ≤ 4.70
- pKd [38]: ≤ 4.70
- pKd [20, 45]: ≤ 4.70
- pKd [39]: 7.63
- pKd [40]: ≤ 4.70
- pKd [41]: ≤ 4.70
- pKd [24, 45]: ≤ 4.70
- pKd [42]: ≤ 4.70
- pKd [26, 45]: ≤ 4.70
- pKd [43]: ≤ 4.70
